In assay [1] the target is T1, human DR4 (Death Receptor 4), cell surface expressed on human tumor cell lines (human, UniProt O00220 24-468).
T1 construct: also called TNFRSF10A; TRAIL-R1
T1 sequence: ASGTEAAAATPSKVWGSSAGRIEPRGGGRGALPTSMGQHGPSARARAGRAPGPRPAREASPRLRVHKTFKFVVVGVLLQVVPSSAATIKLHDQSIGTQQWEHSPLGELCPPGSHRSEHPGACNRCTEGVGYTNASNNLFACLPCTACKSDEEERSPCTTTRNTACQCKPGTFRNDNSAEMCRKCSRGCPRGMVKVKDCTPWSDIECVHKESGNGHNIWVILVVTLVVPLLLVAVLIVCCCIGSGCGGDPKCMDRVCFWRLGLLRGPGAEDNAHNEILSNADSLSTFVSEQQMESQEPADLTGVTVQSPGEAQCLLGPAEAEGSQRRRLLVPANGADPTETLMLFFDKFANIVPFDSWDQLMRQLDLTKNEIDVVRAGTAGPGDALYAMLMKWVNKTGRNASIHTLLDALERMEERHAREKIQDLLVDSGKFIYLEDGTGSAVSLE
In words: flow cytometry, A549 cells, average ± SEM. (In general: Flow cytometry measures light scatter and fluorescence of single cells or particles in a stream.)

In assay [2] the target is T1, human DR4 (Death Receptor 4), cell …. Description: flow cytometry, HCT-116 cells, average ± SEM.
Assay [3] has as its target T2, human FAPα (Fibroblast activation protein alpha), cell surface expressed (human, UniProt Q12884 1-760).
T2 construct: Endogenous on human lung fibroblasts and CAFs
T2 sequence: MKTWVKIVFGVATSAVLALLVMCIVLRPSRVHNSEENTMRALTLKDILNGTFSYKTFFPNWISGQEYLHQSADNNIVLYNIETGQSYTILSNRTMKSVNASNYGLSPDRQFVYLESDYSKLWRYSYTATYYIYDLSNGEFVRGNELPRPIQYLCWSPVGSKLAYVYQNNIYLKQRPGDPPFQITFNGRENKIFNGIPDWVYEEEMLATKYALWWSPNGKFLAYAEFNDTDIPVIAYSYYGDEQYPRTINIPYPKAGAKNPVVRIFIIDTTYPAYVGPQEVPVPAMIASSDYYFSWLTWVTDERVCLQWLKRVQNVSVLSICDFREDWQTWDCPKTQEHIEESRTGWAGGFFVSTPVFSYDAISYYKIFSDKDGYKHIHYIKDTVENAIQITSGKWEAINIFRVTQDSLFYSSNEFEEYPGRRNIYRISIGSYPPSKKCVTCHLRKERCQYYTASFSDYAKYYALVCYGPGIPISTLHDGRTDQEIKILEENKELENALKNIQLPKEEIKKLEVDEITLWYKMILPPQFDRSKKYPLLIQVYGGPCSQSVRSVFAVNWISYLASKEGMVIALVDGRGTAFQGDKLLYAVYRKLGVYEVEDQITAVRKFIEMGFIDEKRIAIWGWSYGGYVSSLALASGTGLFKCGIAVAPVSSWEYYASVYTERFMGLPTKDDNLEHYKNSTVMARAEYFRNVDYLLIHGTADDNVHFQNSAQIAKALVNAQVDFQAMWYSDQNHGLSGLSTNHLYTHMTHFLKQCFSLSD
In words: flow cytometry, Expi293F cells expressing human FAPα, n = 1. As for the experimental part: (§1) Binding of BisG1-FAPα-FERL/DR4-FERR, BisG1-FAPα-FEAL/b12-FEAR and IgG1-FAPα-FERL to FAPα of species commonly used for nonclinical toxicology studies was assessed by flow cytometry using Expi293F cells transiently expressing FAPα from different animal species. IgG1-b12 was included as negative control.
(§2) Expi293F cells expressing recombinant FAPα from various species (human, cynomolgus monkey, dog, pig, rat or mouse) were seeded (20,000 cells/well) in 96-Well round bottom plates (Greiner Bio-one, Cat #650101). Antibody dilutions were prepared using FACS buffer, consisting of PBS (Capricorn Scientific, Cat #PBS-10XA, diluted to 1×PBS in distilled water)+1% BSA (Roche, Cat #10735086001)+0.02% Sodium Azide (Bio-World, Cat #41920044-3). Plates were centrifuged, supernatant was removed, and cells were resuspended in 100 μL of antibody dilutions (concentration range 30-0.00017 μg/mL with three-fold serial dilutions using FACS buffer) of BisG1-FAPα-FERL/DR4-FERR, BisG1-FAPα-FEAL/b12-FEAR, IgG1-FAPα-FERL and IgG1-b12 and incubated for 30 min at 4° C. […] After 30 min incubation at 4° C., cells were washed with FACS buffer and resuspended in FACS buffer supplemented with TO-PRO-3 Iodide viability marker (Invitrogen, Cat #T3605, diluted 1:4,000). Antibody binding to viable cells (gMFI of PE on TO-PRO-3 negative cells) was analyzed by flow cytometry on a FACS Celesta and FACS_Diva software (first two experiments) or iQue® 3 and FlowJo software (last experiment). gMFI was determined and visualized using GraphPad Prism. Binding curves were analyzed using nonlinear regression analysis. The concentration (pg/mL) at which 50% of the maximal effect was observed (EC₅₀) was derived from the fitted curves.

Assay [4] addresses T3, cynomolgus monkey FAPα on Expi293F cells (cynomolgus monkey (Macaca fascicularis), UniProt Q12884 1-760 (human entry)).
T3 sequence: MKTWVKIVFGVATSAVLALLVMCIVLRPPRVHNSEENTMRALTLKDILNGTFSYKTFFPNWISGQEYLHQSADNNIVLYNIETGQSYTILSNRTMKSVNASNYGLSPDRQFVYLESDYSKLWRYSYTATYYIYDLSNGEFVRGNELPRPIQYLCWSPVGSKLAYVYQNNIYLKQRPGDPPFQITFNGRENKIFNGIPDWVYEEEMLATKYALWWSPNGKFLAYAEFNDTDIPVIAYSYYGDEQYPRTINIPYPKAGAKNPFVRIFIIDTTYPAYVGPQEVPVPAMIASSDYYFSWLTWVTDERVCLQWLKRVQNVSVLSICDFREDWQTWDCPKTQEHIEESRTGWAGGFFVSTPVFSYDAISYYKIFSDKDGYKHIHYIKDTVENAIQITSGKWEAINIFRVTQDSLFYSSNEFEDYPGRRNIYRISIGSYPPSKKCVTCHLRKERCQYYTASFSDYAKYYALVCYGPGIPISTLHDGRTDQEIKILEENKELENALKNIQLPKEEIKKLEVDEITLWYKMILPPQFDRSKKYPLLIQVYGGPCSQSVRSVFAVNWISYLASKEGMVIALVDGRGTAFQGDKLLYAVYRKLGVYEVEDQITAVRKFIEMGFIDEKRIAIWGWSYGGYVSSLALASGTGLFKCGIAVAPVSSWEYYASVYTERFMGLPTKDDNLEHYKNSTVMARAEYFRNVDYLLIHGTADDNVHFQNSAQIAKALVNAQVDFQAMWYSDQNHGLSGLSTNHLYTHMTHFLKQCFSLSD
In words: flow cytometry, Expi293F cells expressing cynomolgus monkey FAPα, n = 1. On the procedure: as §1, §2

B1: IgG1-DR4-FERR (antibody, V domains shown)
VH: QVQLQESGPGLVKPSGTLSLTCAVSGGSISSYSWWSWIRQPPGKGLEWIGELYHSGSTNYNPSLKSRVTISVDKSKNQFSLKLRSVTAADTAVYYCVRGVATIDYWGQGTLVTVSS
VL: QSALTQPPSASGSPGQSVTISCTGTSSDVGGYNFVSWYQQDPGKAPKLLIYEVTKRPSGVPDRFSGSKSGNTASLTVSGLQAEDEADYYCSSYAGSNNVMFGGGTKLTVLG
notes: Bivalent monoclonal IgG1 lambda
B1: the EC50 (as a rule, the concentration at which the effect is half-maximal) in assay [1] is 0.32 µg/mL; in assay [2], 0.16 µg/mL.

B2: BisG1-FAPα-FEAL/b12-FEAR (bispecific antibody, human IgG1, kappa)
heavy 1: EVQLLESGGGLVQPGGSPRLSCEASGFTFSSYALSWVRQAPGKGLEWVSAISGSGGGRYYADSVKGRFTISRDNSKNTLFLQMNSLRAEDTAVYYCAKEGYSSSGTYWDHWGQGTLVTVSSASTKGPSVFPLAPSSKSTSGGTAALGCLVKDYFPEPVTVSWNSGALTSGVHTFPAVLQSSGLYSLSSVVTVPSSSLGTQTYICNVNHKPSNTKVDKRVEPKSCDKTHTCPPCPAPEFEGGPSVFLFPPKPKDTLMISRTPEVTCVVVAVSHEDPEVKFNWYVDGVEVHNAKTKPREEQYNSTYRVVSVLTVLHQDWLNGKEYKCKVSNKALPAPIEKTISKAKGQPREPQVYTLPPSREEMTKNQVSLTCLVKGFYPSDIAVEWESNGQPENNYKTTPPVLDSDGSFLLYSKLTVDKSRWQQGNVFSCSVMHEALHNHYTQKSLSLSPG
light 1: AIQMTQSPSSVSASVGDRVTITCRASQGVSSWLAWYQQKPGRAPKLLIYVASTLQSGVPSRFSGSGSGTDFTLTINSLQPEDFATYYCQQANSFPPTFGQGTRLEMKRTVAAPSVFIFPPSDEQLKSGTASVVCLLNNFYPREAKVQWKVDNALQSGNSQESVTEQDSKDSTYSLSSTLTLSKADYEKHKVYACEVTHQGLSSPVTKSFNRGEC
heavy 2: QVQLVQSGAEVKKPGASVKVSCQASGYRFSNFVIHWVRQAPGQRFEWMGWINPYNGNKEFSAKFQDRVTFTADTSANTAYMELRSLRSADTAVYYCARVGPYSWDDSPQDNYYMDVWGKGTTVIVSSASTKGPSVFPLAPSSKSTSGGTAALGCLVKDYFPEPVTVSWNSGALTSGVHTFPAVLQSSGLYSLSSVVTVPSSSLGTQTYICNVNHKPSNTKVDKRVEPKSCDKTHTCPPCPAPEFEGGPSVFLFPPKPKDTLMISRTPEVTCVVVAVSHEDPEVKFNWYVDGVEVHNAKTKPREEQYNSTYRVVSVLTVLHQDWLNGKEYKCKVSNKALPAPIEKTISKAKGQPREPQVYTLPPSREEMTKNQVSLTCLVKGFYPSDIAVEWESNGQPENNYKTTPPVLDSDGSFFLYSRLTVDKSRWQQGNVFSCSVMHEALHNHYTQKSLSLSPG
light 2: EIVLTQSPGTLSLSPGERATFSCRSSHSIRSRRVAWYQHKPGQAPRLVIHGVSNRASGISDRFSGSGSGTDFTLTITRVEPEDFALYYCQVYGASSYTFGQGTKLERKRTVAAPSVFIFPPSDEQLKSGTASVVCLLNNFYPREAKVQWKVDNALQSGNSQESVTEQDSKDSTYSLSSTLTLSKADYEKHKVYACEVTHQGLSSPVTKSFNRGEC
notes: Fab-arm exchange of IgG1-FAPα-FEAL and IgG1-b12-FEAR
As to B2, the concentration giving a half-maximal response (EC50) in assay [3] is 0.14 µg/mL; in assay [4], 0.05 µg/mL.

B3: IgG1-FAPα-FERL (antibody)
heavy: EVQLLESGGGLVQPGGSPRLSCEASGFTFSSYALSWVRQAPGKGLEWVSAISGSGGGRYYADSVKGRFTISRDNSKNTLFLQMNSLRAEDTAVYYCAKEGYSSSGTYWDHWGQGTLVTVSSASTKGPSVFPLAPSSKSTSGGTAALGCLVKDYFPEPVTVSWNSGALTSGVHTFPAVLQSSGLYSLSSVVTVPSSSLGTQTYICNVNHKPSNTKVDKRVEPKSCDKTHTCPPCPAPEFERGPSVFLFPPKPKDTLMISRTPEVTCVVVDVSHEDPEVKFNWYVDGVEVHNAKTKPREEQYNSTYRVVSVLTVLHQDWLNGKEYKCKVSNKALPAPIEKTISKAKGQPREPQVYTLPPSREEMTKNQVSLTCLVKGFYPSDIAVEWESNGQPENNYKTTPPVLDSDGSFLLYSKLTVDKSRWQQGNVFSCSVMHEALHNHYTQKSLSLSPG
light: AIQMTQSPSSVSASVGDRVTITCRASQGVSSWLAWYQQKPGRAPKLLIYVASTLQSGVPSRFSGSGSGTDFTLTINSLQPEDFATYYCQQANSFPPTFGQGTRLEMKRTVAAPSVFIFPPSDEQLKSGTASVVCLLNNFYPREAKVQWKVDNALQSGNSQESVTEQDSKDSTYSLSSTLTLSKADYEKHKVYACEVTHQGLSSPVTKSFNRGEC
notes: Bivalent monoclonal IgG1 kappa
With B3, the EC50 was determined as 0.11 µg/mL in assay [3] and 0.03 µg/mL in assay [4].

Values taken from US20250002610A1 (Genmab, published 2025).
